The record followed here is patent US20120165267A1.

pIC50: −log10 of the molar value.

Experiment [1] has as its target DR4-selective phage clone 11 (human) (UniProt P50591). Nature of the experiment: competition phage ELISA: phage clone Apo.DR4-11 at a fixed concentration on wells coated with DR4-IgG, competed by rising soluble DR4-IgG (axis in nM), bound phage detected with anti-M13 antibody-HRP, A450; IC50 from a 4-parameter fit, third value in the IC50 box beside the legend. On the technique in general: An ELISA detects its analyte on a solid surface through an enzyme-linked reagent.

In experiment [2] the target is DR4-selective phage clone 9 (human) (UniProt P50591). The experiment can be described thus: competition phage ELISA: phage clone Apo.DR4-9 at a fixed concentration on wells coated with DR4-IgG, competed by rising soluble DR4-IgG (axis in nM), bound phage detected with anti-M13 antibody-HRP, A450; IC50 from a 4-parameter fit, second value in the IC50 box beside the legend.

For experiment [3], the target named is DR4-selective phage clone 8 (human) (UniProt P50591). The experiment can be described thus: competition phage ELISA: phage clone Apo.DR4-8 at a fixed concentration on wells coated with DR4-IgG, competed by rising soluble DR4-IgG (axis in nM), bound phage detected with anti-M13 antibody-HRP, A450; IC50 from a 4-parameter fit, first value in the IC50 box beside the legend.

The target of experiment [4] is DR4-selective phage clone 13 (human) (UniProt P50591). Nature of the experiment: competition phage ELISA: phage clone Apo.DR4-13 at a fixed concentration on wells coated with DR4-IgG, competed by rising soluble DR4-IgG (axis in nM), bound phage detected with anti-M13 antibody-HRP, A450; IC50 from a 4-parameter fit, fourth value in the IC50 box beside the legend.
Experiment [5] deals with wild-type (native sequence) Apo2L/TRAIL(96-281) displayed on phage (human) (UniProt P50591). The experiment can be described thus: competition phage ELISA: wild-type Apo2L/TRAIL phage (ApoWT) at a fixed concentration on wells coated with DR4-IgG, competed by rising soluble DR4-IgG (axis in nM), bound phage detected with anti-M13 antibody-HRP, A450; IC50 from a 4-parameter fit, fifth value in the IC50 box beside the legend.

Chain of DR4-IgG (O00220 24-241 H141R/R209T limits assumed): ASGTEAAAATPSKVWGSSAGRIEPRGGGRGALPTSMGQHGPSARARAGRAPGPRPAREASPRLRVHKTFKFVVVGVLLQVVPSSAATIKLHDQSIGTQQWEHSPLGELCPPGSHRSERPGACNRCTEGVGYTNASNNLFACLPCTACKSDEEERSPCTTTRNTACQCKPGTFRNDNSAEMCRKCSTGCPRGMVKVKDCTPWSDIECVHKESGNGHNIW

Regarding “DR4-IgG (from UniProt O00220 24-241) (Fc fusion)”, the negative logarithm of the IC50 (pIC50) (usually the IC50 on a negative log10 scale, so that one unit is a factor of ten) was 8.38 in experiment [1]; 8.96 in experiment [2]; 8.89 in experiment [3]; 8.17 in experiment [4]; 8.55 in experiment [5].
